Assay results published in patent US9200265B2, “Anti-cocaine compositions and treatment” (priority 2006, dated 2015).
Positions count from the first letter of the chain named. Names and notes keep the numbering of the source. Values joined by “and” are separate entries in the source; they are usually repeats but may differ in a detail not shown here. Equal entries are not always repeated. Where two headings read alike, the source gives them in different places.

What was measured:
[1] = biological target: T1, CocE (Rhodococcus sp., UniProt Q9L9D7); assay: Stabilization against 37° C.-induced formation of high molecular weight CocE aggregates (gel); format: physicochemical, Rhodococcus sp. MB 1; conditions: for 37° C.-induced formation of high molecular weight CocE aggregates: 0.1 mg/ml enzyme, mM range
T1 construct: generating a full-length CocE gene encoding the T172R mutation; His6 (C); made in house; host or cells: E. coli (pET-22b(+))
Protocol: (§1) Plasmids containing the mutations were transformed into E. coli BL21 cells and IPTG-induced enzyme was purified on Ni-Agarose. Expressed proteins were then tested for enzymatic activity and for thermostability at 37° C. Enzyme activity was measured using the spectrophotometric assay as described in Example 1. Thermostability was also tested via the spectrophotometric assay by pre-incubation of both wild-type and mutants at 37° C. for various times. Additionally, the nature of the thermo-instability of both the wild-type and T172R mutant was analyzed by polyacrylamide gel electrophoresis under denaturing and non-denaturing conditions. Briefly, mutant and wild-type enzyme at 0.1 mg/ml were incubated at 37° C. for various time-points, cooled to 4° C., mixed with SDS-loading dye containing-mercaptoethanol and run on 10% SDS-PAGE gels (denaturing conditions) or run on native 10% polyacrylamide gels (non-denaturing conditions) at 4° C. Gels were fixed with 10% methanol, 7% acetic acid for 30 minutes, and then stained with Sypro-Ruby protein gel stain (Molecular Probes, Invitrogen) for 3 hours. Protein staining was visualized under UV-light using an AlphaImager™ 3400 (Alpha Innotech). Finally, the exact melting temperature of both the wild-type and T172R mutant were determined by circular dichroism using a JASCO-810 spectropolarimeter driven by a JASCO V500/FP-750 analysis program for Windows. The CD spectra were measured in millidegrees and normalized against PBS buffer.
Cocaine esterase (CocE) cleaves cocaine to produce Benzoic acid and Ecgonine methyl ester. Briefly, alternative substrates and inhibitors of cocaine, as well as compounds able to thermostabilize the enzyme, were investigated generally by substituting amide and thiol analogues at the reactive ester bond, or removing the bond (for inhibitors), substituting benzoyl analogues in place of the benzoic acid leaving group, and/or removing or altering the methyl-ester group on the ecgonine portion of the molecule. As discussed below, it was determined that some substrates, products, and inhibitors stabilized thermal denaturation of wild type CocE, as well as prevented thermally-induced aggregation in gel electrophoresis.
Cocaine is the natural substrate of Cocaine esterase (CocE). Cocaine cleavage was monitored by a drop in absorbance at 240 nm. Cocaine (mM range) prevented 37° C.-induced formation of high molecular weight CocE aggregates (0.1 mg/ml enzyme concentrations) (see, e.g., FIG. 33). Cocaine (uM quantities) stabilized 37° C.-induced activity loss (see, e.g., FIG. 34), although the mechanism of this stabilization is complicated due to substrate inhibition at higher concentrations.

[2] = biological target: T1, CocE; assay: Inhibition of CocE (cleavage of 4-nitrophenyl acetate); format: biochemical, Rhodococcus sp. MB 1
Protocol: Benzoic acid prevented 37° C.-induced formation of high molecular weight CocE aggregates (0.1 mg/ml enzyme concentrations) (see, e.g., FIG. 35). Benzoic acid (uM quantities) stabilized 37° C.-induced activity loss (see, e.g., FIG. 36), although the mechanism of this stabilization is complicated due to substrate inhibition at higher concentrations.
CocE catalyzes the cleavage of 4-nitrophenyl acetate (4NPA) to 4-nitrophenol (4NP) and acetate. The cleavage reaction was monitored by observation of product formation at 400 nm. Both 4NP and 4NPA (mM range) prevented 37° C.-induced formation of high molecular weight CocE aggregates (0.1 mg/ml enzyme concentrations).

[3] = system: WIN 35065-2 induced toxicity; assay: WIN 35065-2 induced lethality in rats; conditions: i.p., rats
[4] = against (-) cocaine; cited from earlier work
[5] = Non-denaturing polyacrylamide gel electrophoresis after incubation at 37° C. (aggregation); format: physicochemical; conditions: non-denaturing gels, 0.1 mg/ml
Protocol: as §1, with “Protein staining was visualized under UV-light using an AlphaImager™ 3400 (Alpha Innotech).” left out

[6] = Melting temperature by circular dichroism (near-UV); format: physicochemical
Protocol: as §1

[7] = Low-UV CD spectra melt with CCA deconvolution; format: physicochemical; conditions: for #3 formation: accumulation of the fully melted protein; for #2 formation: formation of the intermediate state; for #1 melt: initial spectra melts, 0.2 mg/ml; for #2 melt: melt of the intermediate state
Protocol: Low-UV CD spectra data were obtained using an Aviv Spectropolarimeter Mode 400, with the help of Norma Greenfield, UMDNJ, using a 5-cell holder and 0.2 mg/ml protein concentrations. Raw data values obtained were blanked on control PBS, smoothed, and deconvoluted using the CCA algorithm as described by A. Perczel, K. Park, and G. D. Fasman, [Analysis of the circular dichroism spectrum of proteins using the convex constraint algorithm: a practical guide. Analytical Biochemistry 203, 83-93 (1992).] This algorithm finds the minimum number of curves needed to reconstruct a data set, and expresses the percentage each curve contributes to the data set as a function of temperature.
Below is presented a low UV CCA denconvolution analysis of CocE WT and 4 mutants, obtained in a single CD spectra melt using a 5-cell holder. The experiment was performed over the period of 8 hours, from 0-80° C.
Temperature dependent melting was observed between the wavelengths tested (200-250 nm), and the smoothed spectra for each mutant are shown in FIG. 29. […] Dose response analysis was used to approximate the temperature at which the initial spectra melts (1), the formation and melt of the intermediate state (2), and the accumulation of the fully melted protein (3).

[8] = Cocaine spectrophotometric assay (240 nm), Michaelis-Menten kinetics
[9] = system: cocaine-induced lethality; assay: Rodent model of acute cocaine toxicity (convulsions and lethality) in rats

## O=[N+]([O-])c1ccc(O)cc1 [4NP, 4-nitrophenol]
[1]
  37° C.-induced formation of high molecular weight CocE aggregates: prevented

## CC(=O)Oc1ccc([N+](=O)[O-])cc1 [4NPA, 4-nitrophenyl acetate]
[1]
  37° C.-induced formation of high molecular weight CocE aggregates: prevented

## OB(O)c1ccccc1 [Phenylboronic acid]
[2]
  Ki: 250 nM
[1]
  EC50: 200 nM

## COC(=O)[C@H]1[C@@H](c2ccccc2)C[C@@H]2CC[C@H]1N2C [WIN-35065-2, reference compound]
[3]
  LD100: 560 mg/kg

B1: Ala328W/Y332A: cocaine hydrolyzing enzyme of Sun et al., 2002a (genetically engineered BChE) (protein, UniProt P06276 29-602, looked up, variant A328W Y332A)
Cholinesterase: EDDIIIATKNGKVRGMNLTVFGGTVTAFLGIPYAQPPLGRLRFKKPQSLTKWSDIWNATKYANSCCQNIDQSFPGFHGSEMWNPNTDLSEDCLYLNVWIPAPKPKNATVLIWIYGGGFQTGTSSLHVYDGKFLARVERVIVVSMNYRVGALGFLALPGNPEAPGNMGLFDQQLALQWVQKNIAAFGGNPKSVTLFGESAGAASVSLHLLSPGSHSLFTRAILQSGSFNAPWAVTSLYEARNRTLNLAKLTGCSRENETEIIKCLRNKDPQEILLNEAFVVPYGTPLSVNFGPTVDGDFLTDMPDILLELGQFKKTQILVGVNKDEGTWFLVAGAPGFSKDNNSIITRKEFQEGLKIFFPGVSEFGKESILFHYTDWVDDQRPENYREALGDVVGDYNFICPALEFTKKFSEWGNNAFFYYFEHRSSKLPWPEWMGVMHGYEIEFVFGLPLERRDNYTKAEEILSRSIVKRWANFAKYGNPNETQNNSTSWPVFKSTEQKYLTLNTESTRIMTKLRAQQCRFWTSFFPKVLEMTGNIDEAEWEWKAGFHRWNNYMMDWKNQFNDYTSKKESCVGL
[4]
  Kcat: 2.57 s⁻¹
  Km: 18 µM

B2: T172R: mutant CocE polypeptide, SEQ ID NO: 25 (protein)
chain: MVDGNYSVASNVMVPMRDGVRLAVDLYRPDADGPVPVLLVRNPYDKFDVFAWSTQSTNWLEFVRDGYAVVIQDTRGLFASEGEFVPHVDDEADAEDTLSWILEQAWCDGNVGMFGVSYLGVTQWQAAVSGVGGLKAIAPSMASADLYRAPWYGPGGALSVEALLGWSALIGRGLITSRSDARPEDAADFVQLAAILNDVAGAASVTPLAEQPLLGRLIPWVIDQVVDHPDNDESWQSISLFERLGGLATPALITAGWYDGFVGESLRTFVAVKDNADARLVVGPWSHSNLTGRNADRKFGIAATYPIQEATTMHKAFFDRHLRGETDALAGVPKVRLFVMGIDEWRDETDWPLPDTAYTPFYLGGSGAANTSTGGGTLSTSISGTESADTYLYDPADPVPSLGGTLLFHNGDNGPADQRPIHDRDDVLCYSTEVLTDPVEVTGTVSARLFVSSSAVDTDFTAKLVDVFPDGRAIALCDGIVRMRYRETLVNPTLIEAGEIYEVAIDMLATSNVFLPGHRIMVQVSSSNFPKYDRNSNTGGVIAREQLEEMCTAVNRIHRGPEHPSHIVLPIIKR
modifications: Mutant CocE polypeptide
[5]
  half-life at 37° C. relative to the wildtype: ~8 ×
[6]
  increased melting temperature compared to the wild-type CocE: 5 degrees
[6]; near-UV CD
  detectable denaturation beginning: approximately 28 °C
[6]; near-UV CD (260-320 nm), curve-fitting
  melting temperature: 41.43 °C
[7]
  #3 formation: 56.85 °C
  #2 formation: 38.11 °C
  #1 melt: 39.22 °C
  #2 melt: 54.56 °C
[8]; 40 min @ 37° C.
  Km: 78.8 µM
[8]; no preincubation
  Km: 88.2 µM
[9]; 0.32 mg given 1, 10, 30, 60 minutes before 320 mg/kg cocaine
  duration of prophylactic effects: longer lasting than the wild-type CocE
[9]; 0.32 mg i.v. one minute after 1 g/kg cocaine i.p., rats
  lethality: about 70%

B3: T172R/G173Q (protein, UniProt Q9L9D7 1-574, looked up, variant T172R G173Q)
Cocaine esterase: B2 chain with G173Q
[7]
  #3 formation: 56 °C and 56.61 °C
  #2 formation: 45.61 °C
  #1 melt: 40 °C and 40.62 °C
  #2 melt: 46 °C and 46.17 °C

B4: S159A (protein)
chain: B2 chain with S159A, R172T
modifications: Mutant CocE polypeptide
[8]; 40 min @ 37° C.
  Km: 15.7 µM
[8]; no preincubation
  Km: 43.6 µM

B5: T172R-F189K (protein, UniProt Q9L9D7 1-574, looked up, variant T172R F189K)
Cocaine esterase: B2 chain with F189K
[7]
  #3 formation: 57.23 °C
  #2 formation: 46.81 °C
  #1 melt: 38.8 °C
  #2 melt: 48.42 °C

B6: T172R/A193D: mutant CocE polypeptide (protein, UniProt Q9L9D7 1-574, looked up, variant T172R A193D)
Cocaine esterase: B2 chain with A193D
[7]
  #3 formation: 58.72 °C
  #2 formation: 46.47 °C
  #1 melt: 38.11 °C
  #2 melt: 47.68 °C
